Source: US20230067770A1 (SHANGHAI HENLIUS BIOTECH, published 2023)

T1: mouse CD137 (mouse, UniProt P20334 24-187, limits assumed)
T1 sequence (looked up): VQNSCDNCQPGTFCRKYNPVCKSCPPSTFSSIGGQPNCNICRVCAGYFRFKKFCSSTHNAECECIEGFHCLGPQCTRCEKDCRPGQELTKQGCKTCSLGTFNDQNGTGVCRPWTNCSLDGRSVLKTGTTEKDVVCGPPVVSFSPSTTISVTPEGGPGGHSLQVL

T2: Cyno CD137-his (cynomolgus monkey, UniProt A9YYE7 24-186)
T2 construct: Bought reagent; also called cynomolgus monkey CD137; cynomolgus CD137 (Sino Biological, 90847-K02H-100)
T2 sequence: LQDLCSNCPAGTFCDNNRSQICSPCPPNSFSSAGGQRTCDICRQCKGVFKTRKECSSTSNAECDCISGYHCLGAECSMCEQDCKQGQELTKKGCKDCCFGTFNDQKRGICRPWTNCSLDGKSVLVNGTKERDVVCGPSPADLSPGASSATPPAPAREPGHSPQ


What was measured:
Human CD137-his [1] = target: T3, Human CD137-his (human, UniProt Q07011 24-186); assay: BLI (Octet), second round, antibody captured on AHC sensor
T3 construct: Bought reagent; also called Human CD137-His (Sino Biological, 10041-H08H)
Method: (§1) Biolayer interferometry was used to measure the association and dissociation constants for the binding kinetics of the anti-CD137 antibodies. The binding kinetics was measured on a FortieBio Octet Red 96 at 30° C. and analyzed with the FortieBio Data Analysis 9.0 software. Anti-human-IgG Fc (AHC) sensor was used to capture the anti-CD137 antibodies or control antibodies. A kinetic buffer only well was set as a reference well for subtraction during data processing. Data were fitted with a 1:1 Langmuir model for association and dissociation using Rmax linked global fitting for each antibody-antigen binding. Human CD137-his is a recombinant CD137 antigen with a poly histidine tag fused to C-terminus of human CD137 antigen (Sino Biological, 10041-H08H). Cyno CD137-his is a recombinant CD137 antigen with a poly histidine tag fused to C-terminus of cynomolgus CD137 antigen (Sino Biological, 90847-K02H-100).

mouse CD137 = target: T1, mouse CD137; assay: biolayer interferometry (Octet Red 96), antibody captured on AHC sensor
Human CD137-his [2] = target: T3, Human CD137-his; assay: BLI (Octet Red 96), antibody captured on AHC sensor, 1:1 Langmuir fit
Method: as §1

Cyno CD137-his = target: T2, Cyno CD137-his; assay: as above
Method: as §1

Human CD137-his [3] = target: T3, Human CD137-his; assay: as above; remark: listed apart in the source
Method: (§2) Biolayer interferometry was used to measure the association and dissociation constants for the binding kinetics of bispecific antibodies. The binding kinetics was measured on a FortieBio Octet Red 96 at 30° C. and analyzed with the FortieBio Data Analysis 9.0 software. Anti-human-IgG Fc (AHC) sensor was used to capture the bispecific or control antibodies. Double binding was performed by association with the first antigen, then dissociation, and association with the second antigen, then dissociation. A regeneration cycle with 20 mM glycine, pH 1.5 was used between different antibody cycles. The 1×kinetic buffer (FortieBio) was used for baseline. Human CD137-His (Sino Biologicals Cat: 10041-H08H) and rhesus CD137-His protein (Sino Biologicals Cat: 90847-K08H) were diluted into kinetic buffer in a series of concentrations. A kinetic buffer only well was set as a reference well for subtraction during data processing. Data were fitted with a 1:1 Langmuir model for association and dissociation using Rmax linked global fitting for each antibody-antigen binding. Human CD137-his is a recombinant CD137 protein with a poly histidine tag fused to C-terminus of human CD137 antigen (Sino Biological, 10041-H08H). Human EGFR-his is a recombinant EGFR protein with a poly histidine tag fused to C-terminus of human EGFR antigen (Acro Biosystem, EGR-H5222-100 ug).

Human EGFR-his = target: T4, Human EGFR-his (human, UniProt P00533 25-645); assay: as above
T4 construct: Bought reagent; also called EGFR-His (Acro Biosystem, EGR-H5222-100 ug)
Method: as §2

Row | Kd (Human CD137-his [1]) | koff (Human CD137-his [1]) | kon (Human CD137-his [1]) | binding result (mouse CD137) | Kd (Human CD137-his [2]) | koff (Human CD137-his [2]) | kon (Human CD137-his [2]) | Kd (Cyno CD137-his) | koff (Cyno CD137-his) | kon (Cyno CD137-his) | Kd (Human CD137-his [3]) | koff (Human CD137-his [3]) | kon (Human CD137-his [3]) | Kd (Human EGFR-his) | koff (Human EGFR-his) | kon (Human EGFR-his) | Binder
1 | 5.5 nM | 0.000314 s⁻¹ | 57100 M⁻¹ s⁻¹ | no binding | 9.33 nM | 0.000869 s⁻¹ | 93100 M⁻¹ s⁻¹ | 2.76 nM | 0.000712 s⁻¹ | 258000 M⁻¹ s⁻¹ | 4.52 nM | 0.000299 s⁻¹ | 66200 M⁻¹ s⁻¹ | – | – | – | Anti-CD137 2-9 IgG2 (antibody, V domains shown, also called clone 2-9 IgG2 wt; 2-9 IgG2 wildtype) VH: QVQLVQSGAEVKKPGASVKASCKASGFNIQDTYIHWVRQAPGQGLEWMGRIDPANGNSEYAQKFQGRVTMTRDTSTSTVYMELSSLRSEDTAVYYCTTGNLHYALMDYWGQGTSVTVSS VL: DIQMTQSPSSVSASVGDRVTITCKASQPINTYLSWYQQKPGKAPKLLIYRVNRKVDGVPSRFSGSGSGTDFTLTISSLQPEDFATYYCLQYLDFPYTFGGGTKLEIKR
2 | – | – | – | – | – | – | – | – | – | – | 6.25 nM | 0.000116 s⁻¹ | 18600 M⁻¹ s⁻¹ | 2.45 nM | 0.000991 s⁻¹ | 404000 M⁻¹ s⁻¹ | Anti-CD137 scFv x anti-EGFR IgG1 HCC (bispecific antibody, The tie rests on the label only; also called 2-9scFv-αEGFR2-HC-C; anti-CD137×EGFR bispecific antibody) heavy: not shown light: EIVLTQSPATLSLSPGERATLSCRASQSIGTNIHWYQQKPGQAPRLLIKYASESISGIPARFSGSGSGTDFTLTISSLEPEDFAVYYCQQNNNWPTSFGGGTKVEIKRTVAAPSVFIFPPSDEQLKSGTASVVCLLNNFYPREAKVQWKVDNALQSGNSQESVTEQDSKDSTYSLSSTLTLSKADYEKHKVYACEVTHQGLSSPVTKSFNRGEC
